From the supplement of paper PMC9112550, “Optimization of the antimicrobial peptide Bac7 by deep mutational scanning” (BMC Biology, 2022) come the findings set out here.

In the data set the test system is Escherichia coli TOP10. In words: shrunken log2 fold change of peptide-encoding DNA abundance (4.5 h post-induction vs induction); higher = less antimicrobial activity (less host growth inhibition). The settings on record: time post-induction: 4.5 h; library: site-saturation at positions 5, 18, 19, 20.
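Further: peptides expressed intracellularly from a pBAD plasmid library in pooled LB shake-flask culture, induced with 0.3% L-arabinose, DNA abundance read by NGS, three biological replicates, DESeq2 with apeglm shrinkage.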

With RRIRWRPPRLPRPRPRPEFQPRP, the “shrunken log2 fold change” value was determined as 0.118.
Turning to RRIRHRPPRLPRPRPRPWMWPRP, the “shrunken log2 fold change” value is -0.0064.
To RRIRIRPPRLPRPRPRPGHIPRP belongs -0.327; to RRIRSRPPRLPRPRPRPLADPRP, -0.0259; to RRIRSRPPRLPRPRPRPMEQPRP, -0.00992.
In the case of RRIRKRPPRLPRPRPRPPDEPRP it was 1.89; in that of RRIRNRPPRLPRPRPRPIAWPRP, 0.228; in that of RRIRGRPPRLPRPRPRPFPTPRP, 0.63.
To RRIRDRPPRLPRPRPRPFNCPRP belongs 0.0412; to RRIRCRPPRLPRPRPRPKQMPRP, 0.364; to RRIRNRPPRLPRPRPRPWTFPRP, -0.0614.
With RRIRDRPPRLPRPRPRPNPDPRP, the “shrunken log2 fold change” value is -0.0924.
In the case of RRIRVRPPRLPRPRPRPFAQPRP it was 0.0825; in that of RRIRQRPPRLPRPRPRPCSFPRP, -0.0439.
In the case of RRIRCRPPRLPRPRPRPVPEPRP it was 0.316; in that of RRIRSRPPRLPRPRPRPDALPRP, 0.353.
To RRIRHRPPRLPRPRPRPMTSPRP belongs -0.491; to RRIRRRPPRLPRPRPRPIPHPRP, 0.822; to RRIRKRPPRLPRPRPRPRSSPRP, 0.263.
Regarding RRIRIRPPRLPRPRPRPCATPRP, the “shrunken log2 fold change” value is -0.122.
In the case of RRIRIRPPRLPRPRPRPCMKPRP it was -1.01.
In the case of RRIRTRPPRLPRPRPRPCMNPRP, the “shrunken log2 fold change” value was -1.43.
As to RRIRGRPPRLPRPRPRPGGQPRP, the “shrunken log2 fold change” value turned out to be 0.672.
Turning to RRIRTRPPRLPRPRPRPVCGPRP, the “shrunken log2 fold change” value was determined as 0.179.
To RRIRKRPPRLPRPRPRPWVEPRP belongs 0.104.
To RRIRIRPPRLPRPRPRPIICPRP belongs -0.775; to RRIRCRPPRLPRPRPRPDTNPRP, -0.285; to RRIRKRPPRLPRPRPRPCLIPRP, -0.36.
For the sequence RRIRIRPPRLPRPRPRPMDFPRP, the “shrunken log2 fold change” value was found to be 0.00128.
On to RRIRLRPPRLPRPRPRPMATPRP, for which the “shrunken log2 fold change” value is -0.187.
RRIRVRPPRLPRPRPRPPRLPRP: the “shrunken log2 fold change” value was 0.294.
To RRIRDRPPRLPRPRPRPVLAPRP belongs 0.805.
With RRIRQRPPRLPRPRPRPRMAPRP, the “shrunken log2 fold change” value came out at 0.0146.
In the case of RRIRIRPPRLPRPRPRPSQPPRP it was 0.101; in that of RRIRVRPPRLPRPRPRPKWAPRP, 0.269.
To RRIRNRPPRLPRPRPRPCQYPRP belongs -0.0135.
To RRIRKRPPRLPRPRPRPESNPRP belongs 1.13; to RRIRIRPPRLPRPRPRPPWTPRP, 0.0205; to RRIRTRPPRLPRPRPRPLKYPRP, -0.641.
For RRIRDRPPRLPRPRPRPWVFPRP, the “shrunken log2 fold change” value came to 0.289.
To RRIRKRPPRLPRPRPRPCLWPRP belongs 0.0613; to RRIRYRPPRLPRPRPRPLKNPRP, -0.337.
In the case of RRIRDRPPRLPRPRPRPTGVPRP it was -0.0117; in that of RRIRWRPPRLPRPRPRPMGCPRP, 0.117.
For the sequence RRIRVRPPRLPRPRPRPPQPPRP, the “shrunken log2 fold change” value was 1.38.
RRIRKRPPRLPRPRPRPVSEPRP: the “shrunken log2 fold change” value worked out at 0.189.
For RRIRNRPPRLPRPRPRPAGIPRP, the “shrunken log2 fold change” value is -0.0145.
In the case of RRIRKRPPRLPRPRPRPEQRPRP it was 0.431.
In the case of RRIRYRPPRLPRPRPRPVNEPRP it was -0.109.
Consider RRIRDRPPRLPRPRPRPVWMPRP, for which the “shrunken log2 fold change” value was 0.0445.
